Patent US20230265183A1 (MABWELL SHANGHAI BIOSCIENCE, published 2023)
“And” between values parts separate entries of the source, which are not always exact repeats. Equal entries are not always repeated. Where two headings read alike, the source gives them in different places.

T1: human Nectin-4 (human, UniProt Q96NY8 32-510)
T1 construct: whole, on cells; Cell-surface target of the FACS, endocytosis and proliferation assays (CHO-huNectin4 S8 cells, BT474 cells); the assay field says which cells; also called huNectin4; PVRL4
T1 sequence (looked up): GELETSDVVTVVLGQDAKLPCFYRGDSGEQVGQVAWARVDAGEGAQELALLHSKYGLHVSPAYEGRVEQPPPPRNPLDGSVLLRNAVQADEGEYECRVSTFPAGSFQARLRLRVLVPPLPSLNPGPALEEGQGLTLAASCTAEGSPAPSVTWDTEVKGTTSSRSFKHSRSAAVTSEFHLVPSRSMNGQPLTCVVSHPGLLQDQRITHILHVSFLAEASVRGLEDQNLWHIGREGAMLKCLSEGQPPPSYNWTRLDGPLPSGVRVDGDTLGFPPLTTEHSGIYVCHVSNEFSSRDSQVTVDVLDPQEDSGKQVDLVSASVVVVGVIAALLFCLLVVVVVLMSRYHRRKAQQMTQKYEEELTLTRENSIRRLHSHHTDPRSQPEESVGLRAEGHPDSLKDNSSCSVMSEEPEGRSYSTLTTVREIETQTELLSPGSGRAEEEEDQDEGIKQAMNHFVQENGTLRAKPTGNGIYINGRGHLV


Assays:
human Nectin-4 [1] = molecular target: T1, human Nectin-4; assay: FACS on BT474 cells
Experimental: (§1) The solutions of different concentrations were added to 384-well plates, 10 µl per well.
(§2) BT474 cells (breast cancer cells) expressing Nectin-4 on the cell surface were collected by centrifugation at 100 g at room temperature for 5 minutes, and then the cells were washed with PBS containing 0.5% BSA once and were centrifuged at 100 g at room temperature for 5 minutes. […] After incubation at 4° C. for 1 hour, fluorescently labeled goat anti-human IgG secondary antibody was added. After continued incubation at 4° C. for 1 hour, mean fluorescence readings of the cell populations were analyzed by a flow cytometer.
The experiment results of the binding of engineered humanized molecules of the present disclosure to BT474 cells by FACS assay are shown in panels 3B and 3C in FIG. 3 and Tables 6 and 7.

human Nectin-4 [2] = molecular target: T1, human Nectin-4; assay: cell-based or functional assay
human Nectin-4 [3] = molecular target: T1, human Nectin-4; assay: FACS on BT474 cells; remark: listed apart in the source
Experimental: as §1, §2

human Nectin-4 [4] = molecular target: T1, human Nectin-4; assay: cell-based or functional assay; remark: listed apart in the source
human Nectin-4 [5] = molecular target: T1, human Nectin-4; assay: cell-based or functional assay; remark: listed apart in the source
human Nectin-4 [6] = molecular target: T1, human Nectin-4; assay: cell-based or functional assay; remark: listed apart in the source

EC50 (human Nectin-4 [1]) | Endocytosis efficiency (%) (human Nectin-4 [2]) | EC50 (human Nectin-4 [3]) | EC50 (ng/ml), inhibition of proliferation of BT474 cells (human Nectin-4 [4]) | Endocytosis efficiency (%) (human Nectin-4 [5]) | EC50 (ng/ml), inhibition of proliferation of BT474 cells (human Nectin-4 [6]) | Binder | Percentage of cell killing at the highest concentration (human Nectin-4 [4]) | Percentage of cell killing at the highest concentration (human Nectin-4 [6])
– | 42% | – | – | – | – | 42D20 hz20 (antibody, V domains shown) VH: QVQLQESGPGLVKPSETLSLTCTVSGFSLIDYGVSWIRQPPGKGLEWIGVIWGEGKIYYNSVLKSRVTISKDNSKSQVSLKLSSVTAADTAVYYCAKQGGLLFYAMDYWGQGTLVTVSS VL: DIVMTQSPDSLAVSLGERATINCKSSQSLLNSYSQKNYLAWYQQKPGQPPKLLIYFASTRESGVPDRFSGSGSGTDFTLTISSLQAEDVAVYYCQQHYNTPFTFGAGTKLELKR | – | –
– | – | 373 ng/mL | 4.58 ng/mL | 66.6% | – | 42D20 hz64-E (antibody, V domains shown, vcMMAE conjugated to the TECP-reduced antibody; residues not stated; DAR 4.0±1) VH: QVQLQESGPGLVKPSETLSLTCTVSGFSLIDYGVSWIRQPPGKGLEWIGVIWGGGKIYYNSVLKSRVTISKDNSKSQVSLKLSSVTAADTAVYYCAKQGGLLFYAMDYWGQGTLVTVSS VL: DIVMTQSPDSLAVSLGERATINCKSSQSLLNKYSQKNYLAWYQQKPGQPPKLLIYFASTRESGVPDRFSGSGSGTDFTLTISSLQAEDVAVYYCQQHYNTPFTFGAGTKLELKR | 40.9% | –
– | – | 504 ng/mL | 3.61 ng/mL | 71.1% | – | 42D20 hz44-E (antibody, V domains shown, vcMMAE conjugated to the TECP-reduced antibody; residues not stated; DAR 4.0±1) VH: QVQLQESGPGLVKPSETLSLTCTVSGFSLIDYGVSWIRQPPGKGLEWIGVIWGDAKIYYNSVLKSRVTISKDNSKSQVSLKLSSVTAADTAVYYCAKQGGLLFYAMDYWGQGTLVTVSS VL: DIVMTQSPDSLAVSLGERATINCKSSQSLLNKYSQKNYLAWYQQKPGQPPKLLIYFASTRESGVPDRFSGSGSGTDFTLTISSLQAEDVAVYYCQQHYNTPFTFGAGTKLELKR | 42.7% | –
– | – | 430 ng/mL | 6.31 ng/mL | 68.9% | – | 42D20 hz43-E (antibody, V domains shown, vcMMAE conjugated to the TECP-reduced antibody; residues not stated; DAR 4.0±1) VH: QVQLQESGPGLVKPSETLSLTCTVSGFSLIDYGVSWIRQPPGKGLEWIGVIWGDAKIYYNSVLKSRVTISKDNSKSQVSLKLSSVTAADTAVYYCAKQGGLLFYAMDYWGQGTLVTVSS VL: DIVMTQSPDSLAVSLGERATINCKSSQSLLNTYSQKNYLAWYQQKPGQSPKLLIYFASTRESGVPDRFSGSGSETDFTLTISSLQAEDLAVYFCQQHYNTPFTFGAGTKLELKR | 42.5% | –
– | – | 299 ng/mL | 2.42 ng/mL | 67.9% | – | 42D20 hz63-E (antibody, V domains shown, vcMMAE conjugated to the TECP-reduced antibody; residues not stated; DAR 4.0±1) VH: QVQLQESGPGLVKPSETLSLTCTVSGFSLIDYGVSWIRQPPGKGLEWIGVIWGGGKIYYNSVLKSRVTISKDNSKSQVSLKLSSVTAADTAVYYCAKQGGLLFYAMDYWGQGTLVTVSS VL: DIVMTQSPDSLAVSLGERATINCKSSQSLLNTYSQKNYLAWYQQKPGQSPKLLIYFASTRESGVPDRFSGSGSETDFTLTISSLQAEDLAVYFCQQHYNTPFTFGAGTKLELKR | 47% | –
– | – | 230 ng/mL | 2.26 ng/mL and 3.86 ng/mL and 2.91 ng/mL and 3.17 ng/mL | 58.9% | 5.37 ng/mL and 3.95 ng/mL and 5.11 ng/mL and 5.3 ng/mL | Enfortumab-E (antibody, human IgG1, kappa, V domains shown, vcMMAE conjugated to the TECP-reduced antibody; residues not stated; DAR 4.0±1) VH: EVQLVESGGGLVQPGGSLRLSCAASGFTFSSYNMNWVRQAPGKGLEWVSYISSSSSTIYYADSVKGRFTISRDNAKNSLSLQMNSLRDEDTAVYYCARAYYYGMDVWGQGTTVTVSS VL: DIQMTQSPSSVSASVGDRVTITCRASQGISGWLAWYQQKPGKAPKFLIYAASTLQSGVPSRFSGSGSGTDFTLTISSLQPEDFATYYCQQANSFPPTFGGGTKVEIKR | – | –
– | – | – | – | – | 4.64 ng/mL | mIgG 42D20-E (antibody, V domains shown) VH: QVQLKESGPGLVAPSQSLSISCTVSGFSLIDYGVSWIRQPPGKGLEWLGVIWGDGKIYYNSVLKSRLSISKDNSKSQVFLKMNSLQTDDTAMYYCAKQGGLLFYAMDYWGQGTSVTVSS VL: DIVMTQSPSSLAMSVGQRVTMNCKSSQSLLNSYSQKNYLAWYQQKPGQSPKLLIYFASTRESGVPDRFIGSGSETDFTLTISSVQAEDLADYFCQQHYNTPFTFGSGTKLEIK | – | 33.5%
– | – | – | – | – | 3.21 ng/mL | mIgG 5M21-E (antibody, V domains shown) VH: QVQLQQSGPELVKPGASVRITCKASGYTFTTYYIHWVKQRPGQGLEWIGWIYPGNVNTKYNEKFKGKATLTADKSSSTAYMQLSSLTSEDSAVYFCARGLYYFDYWGQGTTLTVSS VL: SIVMTQTPKFLLVSAGDRLTITCKASQSVSNDVAWYQQKPGQSPKLLIYYASNRYTGVPDRFTGSGYGTDFTFTISTVQAEDLAVYFCQQDYSSPYTFGGGTKLEIK | – | 36%

Continued, binder first:

Binder | EC50 (human Nectin-4 [1]) | Endocytosis efficiency (%) (human Nectin-4 [2]) | EC50 (human Nectin-4 [3]) | EC50 (ng/ml), inhibition of proliferation of BT474 cells (human Nectin-4 [4]) | Endocytosis efficiency (%) (human Nectin-4 [5]) | EC50 (ng/ml), inhibition of proliferation of BT474 cells (human Nectin-4 [6]) | Percentage of cell killing at the highest concentration (human Nectin-4 [4]) | Percentage of cell killing at the highest concentration (human Nectin-4 [6])
42D20 hz02 (antibody, V domains shown, Humanized) VH: QVQLQESGPGLVKPSETLSLTCTVSGFSLIDYGVSWIRQPPGKGLEWIGVIWGDGKIYYNSVLKSRVTISVDTSKNQFSLKLSSVTAADTAVYYCARQGGLLFYAMDYWGQGTLVTVSS VL: DIVMTQSPDSLAVSLGERATINCKSSQSLLYSYSQKNYLAWYQQKPGQSPKLLIYFASTRESGVPDRFSGSGSETDFTLTISSLQAEDLAVYFCQQHYNTPFTFGAGTKLELKR | 112 ng/mL | – | – | – | – | – | – | –
42D20 hz10-E (antibody, V domains shown, vcMMAE conjugated to the TECP-reduced antibody; residues not stated; DAR 4.0±1) VH: QVQLQESGPGLVKPSETLSLTCTVSGFSLIDYGVSWIRQPPGKGLEWIGVIWGDGKIYYNSVLKSRVTISKDNSKSQVSLKLSSVTAADTAVYYCAKQGGLLFYAMDYWGQGTLVTVSS VL: DIVMTQSPDSLAVSLGERATINCKSSQSLLNSYSQKNYLAWYQQKPGQPPKLLIYFASTRESGVPDRFSGSGSGTDFTLTISSLQAEDVAVYYCQQHYNTPFTFGAGTKLELKR | – | – | 307 ng/mL | 9.41 ng/mL | 74% | 2.61 ng/mL | 40.8% | 33.7%
20M12 hz01-E (antibody, human IgG1, kappa, V domains shown, vcMMAE conjugated to the TECP-reduced antibody; residues not stated; DAR 4.0±1) VH: QVQLVQSGAEVKKPGASVKVSCKASGYTFTSYYIHWVRQAPGQRLEWMGWIYPGNANNKYNENFKGRVTITRDTSASTAYMELSSLRSEDTAVYYCARSVYYFDYWGQGTLVTVSS VL: EVVMTQSPATLSVSPGERATLSCKASQSVSNDVAWYQQKPGQAPRLLIYYASNRNTGIPARFSGSGSGTEFTLTISSLQSEDLAVYFCQQDYSSPYTFGGGTKVEIKR | – | – | 420 ng/mL | 24.2 ng/mL | 56.6% | – | 32.2% | –
5M21 hz11-E (antibody, human IgG1, kappa, V domains shown, vcMMAE conjugated to the TECP-reduced antibody; residues not stated; DAR 4.0±1) VH: QVQLVQSGAEVKKPGASVKVSCKASGYTFTTYYIHWVRQAPGQRLEWMGWIYPGNVNTKYNEKFKGRVTITADKSASTAYMELSSLRSEDTAVYYCARGLYYFDYWGQGTLVTVSS VL: DIQMTQSPSSLSASVGDRVTITCKASQSVSNDVAWYQQKPGKVPKLLIYYASNRYTGVPSRFSGSGSGTDFTLTISSLQPEDLATYFCQQDYSSPYTFGGGTKVEIKR | – | – | – | – | – | – | – | 38.5%
5M21 hz10-E (antibody, human IgG1, kappa, V domains shown, vcMMAE conjugated to the TECP-reduced antibody; residues not stated; DAR 4.0±1) VH: QVQLVQSGAEVKKPGASVKVSCKASGYTFTTYYIHWVRQAPGQRLEWMGWIYPGNVNTKYNEKFKGRVTITADKSASTAYMELSSLRSEDTAVYYCARGLYYFDYWGQGTLVTVSS VL: DIQMTQSPSSLSASVGDRVTITCKASQSVSNDVAWYQQKPGKVPKLLIYYASNRYTGVPSRFSGSGSGTDFTLTISSLQPEDVATYYCQQDYSSPYTFGGGTKVEIKR | – | – | – | – | – | 21.1 ng/mL | – | 29.4%
20M12 hz11-E (antibody, human IgG1, kappa, V domains shown, vcMMAE conjugated to the TECP-reduced antibody; residues not stated; DAR 4.0±1) VH: QVQLVQSGAEVKKPGASVKVSCKASGYTFTSYYIHWVRQAPGQRLEWMGWIYPGNANNKYNENFKGRVTITADKSASTAYMELSSLRSEDTAVYYCARSVYYFDYWGQGTLVTVSS VL: EVVMTQSPATLSVSPGERATLSCKASQSVSNDVAWYQQKPGQAPRLLIYYASNRNTGIPARFSGSGSGTEFTLTISSLQSEDLAVYFCQQDYSSPYTFGGGTKVEIKR | – | – | 232 ng/mL | 31.6 ng/mL | 58.4% | – | 38.3% | –
20M12 xiIgG-E (antibody, V domains shown, vcMMAE conjugated to the TECP-reduced antibody; residues not stated; DAR 4.0±1) VH: QVQLQQSGPELVKPGASVRISCKASGYTFTSYYIHWVKQRPGQGLEWIGWIYPGNANNKYNENFKGKATLTADKSSSTAYMQLSSLTSEDSAVYFCARSVYYFDYWGQGTTLTVSS VL: SVVMTQTPKFLLVSAGDRVTITCKASQSVSNDVAWYQQKPGQSPKLLIYYASNRNTGVPDRFTGSGYGTDFTFNISTVQAEDLAVYFCQQDYSSPYTFGGGTKLEIKR | – | – | 227 ng/mL | 14.8 ng/mL | 67% | – | 41.4% | –
